Source: US20020049180A1

Molecular target: GST-fusion protein containing amino acids 327-517 of KIAA0175 (human) (UniProt Q14680)
Experiment: cell-based or functional assay

increase of phosphorylation by ATM immunoprecipitated from gamma-irradiated cells: 2 to 3 fold
Substance: Ataxia telangiectasia mutated (ATM) (from UniProt Q13315 2-3056) (enzyme)
